Among the data in paper PMC7442622, “A functionally neutral single chain antibody to measure beta‐1 integrin uptake and recycling” (Traffic (Copenhagen, Denmark), 2020) are Kd values, retold here.

What is called Kd is the constant that tells how readily two partners part at equilibrium.

The target of this test is T1, β1 integrin (Homo sapiens, UniProt P05556).
T1 construct: β1 integrin (integrin beta-1), endogenous on the surface of H1975 and hTERT-RPE1 cells; On cells β1 integrin stands in αβ heterodimers; also called beta‐1 integrin; endogenous β1 integrin; source: endogenous, on H1975 cells; endogenous, on hTERT‐RPE1 cells
The test is described as follows: ELISA; cell-based ELISA binding isotherm on H1975 cells seeded on gelatin- and fibronectin-coated 96-well plates; antibody dilutions in PBS4+ (1 mM MgCl2, 1 mM CaCl2, 5 mM glucose, 1% BSA), 30 minutes at 4°C; KD as the concentration at half-maximal binding; n = 4. As to conditions: one partner purified. For orientation: ELISA stands for enzyme-linked immunosorbent assay.

T1 sequence (P05556 21-798): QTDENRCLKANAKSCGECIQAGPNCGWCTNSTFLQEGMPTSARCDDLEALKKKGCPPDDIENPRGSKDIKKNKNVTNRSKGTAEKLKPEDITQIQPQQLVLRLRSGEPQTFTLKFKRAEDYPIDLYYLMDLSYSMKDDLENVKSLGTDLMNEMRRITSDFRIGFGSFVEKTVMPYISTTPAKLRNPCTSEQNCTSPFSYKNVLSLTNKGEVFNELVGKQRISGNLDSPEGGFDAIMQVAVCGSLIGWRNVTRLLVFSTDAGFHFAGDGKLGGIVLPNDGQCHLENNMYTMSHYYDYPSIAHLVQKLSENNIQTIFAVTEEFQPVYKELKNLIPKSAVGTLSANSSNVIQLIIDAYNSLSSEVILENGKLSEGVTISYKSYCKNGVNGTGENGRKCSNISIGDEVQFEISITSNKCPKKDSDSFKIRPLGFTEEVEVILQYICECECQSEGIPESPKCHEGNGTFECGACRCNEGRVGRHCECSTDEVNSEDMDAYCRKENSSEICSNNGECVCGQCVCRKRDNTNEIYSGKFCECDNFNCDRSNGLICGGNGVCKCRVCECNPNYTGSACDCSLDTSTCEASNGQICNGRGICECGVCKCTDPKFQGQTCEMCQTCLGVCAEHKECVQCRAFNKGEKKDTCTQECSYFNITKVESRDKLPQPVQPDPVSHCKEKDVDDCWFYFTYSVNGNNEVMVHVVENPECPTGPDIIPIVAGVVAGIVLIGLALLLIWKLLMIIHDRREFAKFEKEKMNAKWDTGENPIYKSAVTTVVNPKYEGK

B1: MBP‐scFv^K20 (scFv, V domains shown)
VH: QVQLQESGTELVRPGASVKLSCKASGYTFTDYYISWVKQRPGQGLEWIARIYPGSGNTFYNEKFKGKATLTAETSSNTAYMQLSSLTSEDSAVYFCAIYYGSGDYWGQGTTVTVSS
VL: DIQLTQSPSSLSASLGGKVTITCKASQDINKYIAWYQHEPGKGPRLLIRYTSKLESGIPSRFSGSGSGRDYSFSISNLEPEDIATYYCLQYYNLWTFGGGTKLEIK
notes: VH of mouse mAb K20; flexible linker, 3x repeat of GGGGS; VL of mouse mAb K20; 71 kDa fusion; a TEV site lies between MBP and the scFv; monovalent; also called MBP‐fused scFv^K20; anti‐β1 integrin scFv^K20; source: High Five insect cells, baculovirus, secreted; purified (IMAC, SEC peak 2); also as culture media containing secreted scFv^K20; not shown: His6, N-terminal, kept; MBP, N-terminal, …
In turn, B1 showed a Kd of 6.54 ± 1.34 nM.

B2: mouse monoclonal anti‐β1 integrin antibody mAb K20 (antibody, V domains shown)
VH: QVQLQESGTELVRPGASVKLSCKASGYTFTDYYISWVKQRPGQGLEWIARIYPGSGNTFYNEKFKGKATLTAETSSNTAYMQLSSLTSEDSAVYFCAIYYGSGDYWGQGTTVTVSS
VL: DIQLTQSPSSLSASLGGKVTITCKASQDINKYIAWYQHEPGKGPRLLIRYTSKLESGIPSRFSGSGSGRDYSFSISNLEPEDIATYYCLQYYNLWTFGGGTKLEIK
notes: VH of mAb K20; constant region of the heavy chain of a mouse IgG; VL of mAb K20; constant region of the light chain of a mouse antibody; Bivalent IgG; also called mAb K20 IgG; parent mAb K20; source: bought: Beckman Coulter; copies: 2 + 2
Molecule B2 displayed a Kd of 1.2 ± 0.14 nM.
